Laboratory results from PMC8980211 (2022).

Target: SARS-CoV-2 RBD protein (immobilised in SPR) (SARS-CoV-2, UniProt P0DTC2 319-541)
Assay: SPR

B1: mAb 35B5 (antibody, V domains shown)
VH: QVQLLESGGGLVQPGRSLRLSCAASGFTFDDYAMHWVRQAPGKGLEWVSGVSWNSGTIGYADSVKGRFTISRDNAKNSLYLHMRSLRAEDTALYYCAKAVEMVRGLMGLGADPEYGMDVWGQGTTVTVSS
VL: not shown
With B1 the koff was 5.49e-06 s⁻¹.
